Data on 16 sequences can be found in the Immune Epitope Database (IEDB).

The Kd is the equilibrium constant for the complex coming apart. Usually IC50 stands for the point on the concentration scale where inhibition reaches its midpoint. Low readings indicate greater potency in that assay, high ones weaker potency in that assay.

Bounds are passed on as bounds.

One test concerns the target HLA-B*08:01. The test can be described thus: IEDB peptide-MHC binding, purified MHC/direct/fluorescence; filed as Kd, often an IC50 or EC50 that approximates it; ≥ and ≤ were set here for values at or beyond the usual limits of such assays.
Another test deals with HLA-A*24:03. The description is as above.
Another test deals with HLA-A*69:01. Described as above.
The target in test [1] is HLA-A*02:01. The test is described as above.
The target in another test is HLA-B*58:01. The description is as above.
The target in another test is HLA-B*15:01. The test is described as above.
For a further test, the target named is HLA-A*11:01. Described as above.
The target in test [2] is HLA-B*44:02. Described as above.
For test [3], the target named is HLA-B*40:01. The test is described as above.
The target of another test is HLA-B*27:05. Described as above.
In test [4] the target is HLA-B*07:02. The description is as above.
A further test deals with HLA-A*03:01. The description is as above.
For the next test, the target named is HLA-A*26:01. The description is as above.
A further test concerns the target HLA-A*31:01. The test is described as above.
For a further test, the target named is HLA-A*01:01. The description is as above.
For test [5], the target named is HLA-B*44:02. The test is described as follows: IEDB peptide-MHC binding, purified MHC/competitive/radioactivity; filed as Kd, often an IC50 or EC50 that approximates it; ≥ and ≤ were set here for values at or beyond the usual limits of such assays.
For test [6], the target named is HLA-A*02:01. The test is described as above.
The target of a further test is HLA-B*44:03. Described as above.
For test [7], the target named is HLA-A*02:01. The test is described as follows: IEDB peptide-MHC binding, purified MHC/competitive/fluorescence; ≥ and ≤ were set here for values at or beyond the usual limits of such assays.
The target of test [8] is HLA-A*24:02. The description is as above.
The target in test [9] is HLA-B*40:01. The test can be described thus: IEDB peptide-MHC binding, purified MHC/competitive/radioactivity; filed as Kd, often an IC50 or EC50 that approximates it; ≥ and ≤ were set here for values at or beyond the usual limits of such assays.
The target of another test is HLA-B*51:01. The test is described as follows: IEDB peptide-MHC binding, purified MHC/competitive/fluorescence; filed as Kd, often an IC50 or EC50 that approximates it; ≥ and ≤ were set here for values at or beyond the usual limits of such assays. As to conditions: source organism: Burkholderia ambifaria AMMD.
The target of the next test is HLA-B*35:01. The test is described as follows: IEDB peptide-MHC binding, purified MHC/competitive/radioactivity; filed as Kd, often an IC50 or EC50 that approximates it; ≥ and ≤ were set here for values at or beyond the usual limits of such assays. As to conditions: source organism: Dengue virus 1 Brazil/97-11/1997.
The target of the next test is HLA-A*23:01. The description is as above. As to conditions: source organism: Dengue virus 1 Brazil/97-11/1997.
The target of test [10] is HLA-A*24:02. The test is described as above. As to conditions: source organism: Dengue virus 1 Brazil/97-11/1997.
The target of test [11] is HLA-B*07:02. The test is described as above. As to conditions: source organism: Dengue virus 1 Brazil/97-11/1997.
The target in a further test is HLA-B*53:01. The test is described as above. As to conditions: source organism: Dengue virus 1 Brazil/97-11/1997.
[12] abbreviates: source organism: Rickettsia prowazekii.
Setting [13] is: source organism: Triticum aestivum.
Setting [14] is: source organism: Dengue virus 1 Singapore/S275/1990.
[15] abbreviates: source organism: Zaire ebolavirus.
Where [16] appears, read: source organism: Vaccinia virus Copenhagen.
[17] abbreviates: source organism: Salmonella enterica.
The mark [18] stands for this setting: source organism: Salmonella enterica subsp. enterica serovar Typhi.
Setting [19] is: source organism: Dengue virus 4 Philippines/H241/1956.

For IYSAEFKNY, the Kd is ≥ 20 µM with HLA-B*08:01 (setting [12]); 1.41 µM with HLA-A*24:03 (setting [12]); ≥ 20 µM with HLA-A*69:01 (setting [12]); ≥ 20 µM with HLA-A*02:01 [1] (setting [12]); ≥ 20 µM with HLA-B*58:01 (setting [12]); 20 µM in the test with HLA-B*15:01 (setting [12]). The Kd with HLA-A*11:01 (setting [12]) was ≥ 20 µM; with HLA-B*44:02 [2] (setting [12]), ≥ 20 µM; with HLA-B*40:01 [3] (setting [12]), ≥ 20 µM; in the test with HLA-B*27:05 (setting [12]), ≥ 20 µM; in the test with HLA-B*07:02 [4] (setting [12]) it was ≥ 20000 nM; with HLA-A*03:01 (setting [12]), ≥ 20 µM. The Kd in the test with HLA-A*26:01 (setting [12]), in the test with HLA-A*31:01 (setting [12]) and with HLA-A*01:01 (setting [12]) was ≥ 20 µM each time.
Consider KELKCGSGIF, for which, in the test with HLA-B*44:02 [5] (source organism: Dengue virus 2 Jamaica/1409/1983), the Kd is 33.6 nM.
For the sequence AIHNVVHAI, the Kd in the test with HLA-A*02:01 [6] (setting [13]) is 166 nM.
GIFEDRAPV: in the test with HLA-A*02:01 [6] (source organism: Human alphaherpesvirus 1 strain 17), the Kd was determined as 500 nM.
On to AEHSGASHNI, for which the dissociation constant Kd with HLA-B*44:02 [5] (setting [14]) was 78.6 nM; with HLA-B*44:03 (setting [14]), 502 nM.
As for FFLWVIILF, the IC50 in the test with HLA-A*02:01 [7] (setting [15]) is 7.45 µM; with HLA-A*24:02 [8] (setting [15]), 53 µM.
Regarding RQTQSRPIQ, in the test with HLA-A*24:02 [8] (setting [15]), the IC50 was ≥ 125 µM.
ELCCQHLWQI: in the test with HLA-A*02:01 [6] (setting [13]), the equilibrium dissociation constant (Kd) turned out to be 5560 nM.
Turning to IEQMANGIAL, the Kd with HLA-B*40:01 [9] (source organism: Dengue virus 3 Martinique/1243/1999) was 0.00257 µM.
For the sequence LHSLSVETI, the IC50 with HLA-A*02:01 [7] (setting [16]) is ≥ 195 µM; with HLA-A*24:02 [8] (setting [16]), 13 µM.
For the sequence RPQLGVGDV, the Kd was ≥ 20 µM with HLA-B*08:01 (setting [17]); 6.18 µM in the test with HLA-A*24:03 (setting [18]); ≥ 20 µM in the test with HLA-A*69:01 (setting [17]); ≥ 20 µM with HLA-A*02:01 [1] (setting [17]); ≥ 20 µM with HLA-B*58:01 (setting [17]); ≥ 20 µM with HLA-B*15:01 (setting [17]). For the same sequence, the Kd was ≥ 20 µM with HLA-A*11:01 (setting [17]); ≥ 20 µM in the test with HLA-B*44:02 [2] (setting [17]); ≥ 20 µM in the test with HLA-B*40:01 [3] (setting [17]); ≥ 20 µM in the test with HLA-B*27:05 (setting [17]); 380 nM with HLA-B*07:02 [4] (setting [18]); ≥ 20 µM with HLA-A*03:01 (setting [17]). The Kd in the test with HLA-A*26:01 (setting [17]), in the test with HLA-A*31:01 (setting [17]) and with HLA-A*01:01 (setting [17]) was ≥ 20 µM in each case.
Regarding PEVANLDII, in the test with HLA-B*40:01 [9] (source organism: Dengue virus 1 Brazil/97-11/1997), the Kd is 8.59 µM.
For the sequence LPWSSPQLW, the dissociation constant Kd in the test with HLA-B*51:01 is 90.6 nM.
With LEENMEVEIW, the Kd with HLA-B*44:02 [5] (setting [19]) stood at 225 nM; with HLA-B*44:03 (setting [19]) it was 257 nM.
Take LDKITDFHE: the IC50 in the test with HLA-A*24:02 [8] (source organism: Variola virus) was found to be 24.2 µM. In other words, the double-digit micromolar range.
Take RPMFAVGLLF: the dissociation constant Kd in the test with HLA-B*35:01 came to 919 nM; with HLA-A*23:01, 33.9 nM; in the test with HLA-A*24:02 [10], 416 nM; with HLA-B*07:02 [11], 10.5 nM; in the test with HLA-B*53:01, 93.5 nM.
